Assay results from publication PMC12463286.
Substitutions are numbered along the chain they refer to.

How the values were obtained:
Assay in all cases: EMSA
Conditions in all cases: pH 7.5, 30 min at 37 C
[1] = target: T1, FadR (Streptococcus suis serotype 2 strain ZY05719) (UniProt A0A0H3MZ02)
T1 sequence: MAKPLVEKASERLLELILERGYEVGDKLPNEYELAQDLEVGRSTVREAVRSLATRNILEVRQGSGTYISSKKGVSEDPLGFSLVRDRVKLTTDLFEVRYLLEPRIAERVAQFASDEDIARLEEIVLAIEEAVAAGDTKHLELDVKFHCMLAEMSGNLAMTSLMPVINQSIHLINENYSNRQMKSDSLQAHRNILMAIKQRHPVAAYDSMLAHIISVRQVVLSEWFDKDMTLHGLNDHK

[2] = target: T2, FadR-T230A T230A (Streptococcus suis serotype 2 strain ZY05719) (UniProt A0A0H3MZ02)
T2 sequence: T1 sequence with T230A

[3] = target: T3, FadR-T230E T230E (Streptococcus suis serotype 2 strain ZY05719) (UniProt A0A0H3MZ02)
T3 sequence: T1 sequence with T230E

Measured: binding

CTGTCCTCCTTGTAGATTTATACATGATGGGAAACGAGGAGGACCGTACGCTTTCCTGCCTCTCATTTCCTCTTTACATCCATAGTTTAACAGAGCAAAAAAACAAAAACTTGAAAACGCTCACATTTATTTTGAGAAATTCTTCACATTTTTAACCTTATTTATAAATAATTATCGATTATATCATCTAAATTCTGCATAATTCTTTCCGTTATATCATTATATGAATTTTTATTTTTTTATAAAAAACAGAAACTTCAATGAGTTTCTGTCAAATTTTCTAAGAAATAATCAATATCT (double strand) [adi promoter]
binds: all assays above
